# Assay: yeast display, Sf9 membrane polyspecificity reagent, FACS + sequencing; frameworks hold sequencing errors
# Procedure, shortened: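 Using colony PCR, genes from sorted yeast display clones were amplified, then sequenced on MiSeq at 2 × 250 and filtered by CDR length. The clones had been stained with 10% biotinylated, detergent-solubilized Sf9 membrane reagent for 1 hour at 4 °C and sorted by FACS into low and high (top ~1%) gates on anti-HA and streptavidin fluorescence. Polyreactivity labels come from the gate of origin.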
row,Sequence,polyreactivity (PSR sort gate)
1,QVQLVESGGGLVQAGGSLRLRCAASGSTFNRYAMGWYRQAPWKERELVAAINWRGGRTYYADSVKGRFTISRDNAKNTVYLQMNSLKPEDTAVYYCNADVTSLTRVHGRFIVSDDDYWGQGTQVTVSS,low polyreactivity
2,QVQLVESGGGLVQAGGSLRLRCAASGSTIRCYAMGWYRQAPGKERELVAAIRRGGSTYYADSVKGRFTISRDNAKNTVYLQKNSLKPEVTAVYYCAAEPGYYSRQDYRVYRLYYWGQGTQVTVSS,high polyreactivity
3,QVQLVESGGGLVQAGGSLRLRCAASGSTYTVYAMGWYRQAPRKDRELVAAIRDGSSTNYADSVKGRFTISRDNAKNTVYLQRNSLKPEDTAVYYCNAPYPPTGYGDDDYWGQGTQVTVSA,low polyreactivity
4,QVQLVESGGGLVQAGGSLRLRCAASGYIIKYNAMGWYRQAPGKERELVAAISSIGGRTYYADSVKGRFTISRDNAKNTVYLQMNSLKPEDTAVYYCNAVGGRYTGWRYDYWGQGPQVTVSS,high polyreactivity
5,QVQLVESGGGLVQAGGSLRLRCASSGSIFYWYAMGWYRQAPGKERELVAAISRSGGSTYYADSVKGRFTISRDNAKNTVYLQMNSLKPEDTAVYYCATELSYRHGYWGQGTQVTVSS,high polyreactivity
6,QVQLVESGGGLVQAGGSLRLRCDASGRTFFKNAMGWYRQAPGKERELVAAITSTGGRTYYADSVKGRFPISRDTAKNNVYVEMNSLKPEDTAVYYCAASNFYSGYYYWRQGTQVTVSS,high polyreactivity
7,QVQLVESGGGLVQAGGSLRLRCGASGFIFDQYAMGWYRQAPGKERELVAAITYSGGGTYYADSVKGRFTISRDNAKNTVYLQMNSLKPEDTAVYYCADLFGYSLYDAQYDYWGQGTQVTVSS,low polyreactivity
8,QVQLVESGGGLVQAGGSLRLRFAASGSIFVRNALGWYRQAPGKERELVAAITYSGSRTYSADSVKGRFTISRDNAKNTVYLQMNSLKPEETAVYYCAKVRVLVDKWSTFYEYYYWGQGTQVTVSS,low polyreactivity
9,QVQLVESGGGLVQAGGSLRLRSAASGFTFHRYAMGWSRQAPGKERELVAGITRRSGSTFYADSVKGRFTISRDNAKNTVYLQMNSLKPEDTAVYYCAATVPGLHWIYDYWGQGTQVTVSS,high polyreactivity
10,QVQLVESGGGLVQAGGSLRLSCAAAGRIFVGYAMGWYRQAPGKERELVAGISRSGYSTYYADSVKGRFTISRDNAKNTVYLQMNSLKPEDTAVYYCAASWYKNPTRYYYWGQGTQVTVSS,high polyreactivity
11,QVQLVESGGGLVQAGGSLRLSCAAAGRTFYPYVMGWYRQAPGKERELVATISWSGGSTYYADSVKGRFTISRDNAKNSVYLQMNSLKPEDTAVYYCAALWPYGYWGQGTQVTVSS,low polyreactivity
12,QVQLVESGGGLVQAGGSLRLSCAAAGSIFYYKTMGWYRQAPGKEREMVAAISWSGGSTSYADSVKGRFTISRDNAKNTVYLQMNSLKPEDTAVYYCNVDYGVHVTARDYWGQGTQVTVSS,low polyreactivity
13,QVQLVESGGGLVQAGGSLRLSCAAAGSIVWFYAMGWYRQAPGKERELFASISSSGGSTYYADSVKGRFTISRDKAKNPGNIQMNTLKPEYTAVYYCAKRTNWGYWYNSWGQGTQVTVSS,high polyreactivity
14,QVQLVESGGGLVQAGGSLRLSCAACGFTFLRYVMGWYRQAPGKERELVAAISYSGGRTYYADSVKGRFTISRDNAKNTVYLQMNSLKPEDTAVYYCAAARPVGYPPVLKYAYWGQGTQVTVSS,high polyreactivity
15,QVQLVESGGGLVQAGGSLRLSCAACGGTFRSNAMGWYRQAPGKERELVAASTNYADSVKGRFTISRDNAKNTVYLQMNSLKPEDTAVYYCAAGPTDSQTGMDYWGQGTQVTVSS,low polyreactivity
16,QVQLVESGGGLVQAGGSLRLSCAACGIIFSWYAMGWYRQAPGKERELVAAISSSGGTTFYADSVKGRFTISRDKAKNTVYLQMNSLKPEDTAVYYCAVVGPPYYTWRVWRPAYDYWGQGTQVTVSS,high polyreactivity
17,QVQLVESGGGLVQAGGSLRLSCAACGIPLRLNAIGWYRQAPGKERELVARITWRGSTYYADSVKGRFTISRDNAKNTVYLQMNSLKPEDTAVYYCAADNRSWQPPTILPPGASDYWGQGTQVTVSS,low polyreactivity
18,QVQLVESGGGLVQAGGSLRLSCAACGITFTSNAMGWYRQAPGKERELVASISWSDDNTHYADSVKGRFTISRDNAKYTVYLQMNSLKPEDTAVYYCAADGTHPRPGTYKFDYWGQGTQVTVSS,low polyreactivity
19,QVQLVESGGGLVQAGGSLRLSCAACGRIFGGNTMGWYRQAPGKQRELVAAITVRGGSTYYADSVKGRFTISRDNAKNTVYLQMNSLKPEDTAVYYCAARRRIFPPRFGYWGQGTQVTVSS,high polyreactivity
20,QVQLVESGGGLVQAGGSLRLSCAACGRTFQWYPMGGFRQAPGTERELVAAISWSGTSTYYADSVKGRFTISRDNAKHTVYLQMNSLKPEDTAVYYCNKPCDVWDHDYDYWGQGTQVTVST,low polyreactivity
21,QVQLVESGGGLVQAGGSLRLSCAACGRTFVSYAMGWYRQAPGKERELVAAITNAGSTYYADSVKGRFTISRDNAKNTVYLQMNSLKPEDTAVYYCAATYWDYWGYGYDYWGQGTQVTVSS,high polyreactivity
22,QVQLVESGGGLVQAGGSLRLSCAACGSIFLSNSMGWYRQAPGKERELVADIDWTGGDTYYADSVKGRFTISRDNAMNTVYLQMNSLKPEDTAFYYCAADYGYRNLLTEYGYWVQGTQVTVSS,low polyreactivity

row,Sequence,polyreactivity (PSR sort gate)
1,QVQLVESGGGLVQAGGSLRLSCAACGSIFPGYAMGWYRQAPGKERELVATIRWSSGSRTNYADSVKGRFTISRDNAKNTVYLQMNSLKPEDTAVYYCAAGSRRYKYDYWGQGTQVTVSS,high polyreactivity
2,QVQLVESGGGLVQAGGSLRLSCAACGSTFDVNARGWYRQAPGKERELVAAISWSDDDTYYADSVKGRFTISRDNAKNTDYLQKHSLKPEDTAVYYCAADGRYGWYYGVYNGEDYWGQGTQVTVSS,high polyreactivity
3,QVQLVESGGGLVQAGGSLRLSCAACGSTFGSYAMGWYRQAPGKERELVADITSGGSTYYADSVKGRFTISRDNAKNTVYLQMNSLKPEDTAVYYCAVEGWWDDYKSGAGEFNYWGQGTQVTVSS,low polyreactivity
4,QVQLVESGGGLVQAGGSLRLSCAACGSTFPYNAMGWYRQAPGKERELVAAISGNGDSTFYADSVKGRFTISRDNAKNTVYLQMNSLKPEDTAVYYCAAEQYYGYYFYGYWGQGTQVTVSS,high polyreactivity
5,QVQLVESGGGLVQAGGSLRLSCAACGSTFWYYVMGWYRQAPGKERELVAAISTRGDSTYYADSVKGRFTISRDNAKNTVYLQMNSLKAEDTAVYYCAKSRQSSGRVRFDYWGQGTQVTVSS,low polyreactivity
6,QVQLVESGGGLVQAGGSLRLSCAAFGFTFNAYALGWYRQAPGKERELVAGITSSGGGTYYADSVKGRFTISRDNAKNTVYLEMNSLKPEDTAVYYCNTYSYLFSRYGYWGQGTQVTVSS,high polyreactivity
7,QVQLVESGGGLVQAGGSLRLSCAAFGPIFQYYAMGSYRQAPGKERELVAAITRSGGSTYYADSVKGRFTISRDNAKNTVYLQMNSLKPEDTAVYYCAAYSRYTVREGYDYWGQGTQVTVSS,high polyreactivity
8,QVQLVESGGGLVQAGGSLRLSCAAPGSTFVAYAMGWYRQAPGKERELVAAISSVGRTNYADSVKGRFTISRDNAKNTVYLQMNSLKPEDTAVYYCAAVYVDRRKRSYYWGQGTQVTVSS,high polyreactivity
9,QVQLVESGGGLVQAGGSLRLSCAASAGTFWNAMGWYRQAPGKERELVATITSGSSTNYADSVKGRFTISRDNAKNTVYLQMNSLKPEDTAVYYCNARTIPWPYIVSYDYWGQGTQVTVSS,high polyreactivity
10,QVQLVESGGGLVQAGGSLRLSCAASALTLRTYAMGWYRQAPGKERELVAAITTGGSTYYADSVKGRFTISRDNAKNTVYLQLNSLKPEDTAVYYCAADFIRYINRLLYDYWGQGTQVTVSS,low polyreactivity
11,QVQLVESGGGLVQAGGSLRLSCAASARIFDTYAMGWYRQAPGKETELVDSISIDGSTYYADSVKGRFTISRDNAKNTVYLQMNSLKPEDTAVYYCNADGRYYTVRFEYWGQGTQVTVSS,low polyreactivity
12,QVQLVESGGGLVQAGGSLRLSCAASARIFPVYAMGWYRQAPGKERELVAAISRSAGRTYYADSVKGRFTISRDNAKNTVYLQMNRLKPEDTAVYFCAAQSPYGYDYWGQGTQVTVSS,low polyreactivity
13,QVQLVESGGGLVQAGGSLRLSCAASARIYTTYAMGWYRQAPGKERELVASITTTDTRTYADSVKGRFTISRDNAKNTVYLQMNSLKPEDTAVYYCAKDRLNKGRYYRGASDYWGLGTQVTVSS,low polyreactivity
14,QVQLVESGGGLVQAGGSLRLSCAASARTFKPYAMGWYRQAPGKERELVAAISTRGGSTYYADSVKGRFTISRDNAKNTVYLQMNSLKPEDTAVYYCAATQPCRDYDYWGQGTQVTVSS,low polyreactivity
15,QVQLVESGGGLVQAGGSLRLSCAASARTFSYYTMGWSRQEPGKARELVARISNRGTNTYYADSVKGRFTISRDNAKNTVYLQMNSLKPEDTAVYYFAKYYYSSIVGYDSWGQGTQLTVSS,low polyreactivity
16,QVQLVESGGGLVQAGGSLRLSCAASARTYGNYAMGWYREAPGKERELVADITRRGGSTSYADSVKGRFTISRDNAKNTVYLQMNSLKPEDTAVYYCNKRTTPYYAQGISRLEYDYWGQGTQVTVSS,low polyreactivity
17,QVQLVESGGGLVQAGGSLRLSCAASASIFAYKAIGWYRQAPGKESELVASITNGGSTYYADSVKGRFTISRDNAKNTVYLQMNSLKQEDTAVYYCNTDFDVYSVGYDGYWGQGTQVTVSS,low polyreactivity
18,QVQLVESGGGLVQAGGSLRLSCAASASIFILNAMGWYRPAPGKERELVAAISWSGGRTNYADSVKGRFTISRDTAKNTVYLHMNSLKPEETAVYFCAARVTPYRGFYYWGQGTQVTVSS,high polyreactivity
19,QVQLVESGGGLVQAGGSLRLSCAASASIFNYYAMGRYRQAPGKERELVAAITSGGSTYYADSVKGRFSISRDNAKNTVYLQMNSVKPEDTAVYYCNKAFPYIYDYWGQGTQVTVSS,low polyreactivity
20,QVQLVESGGGLVQAGGSLRLSCAASASILVRYAMVCYRQAPGKKREMVSAITATSGGTYYADSVKGRFTFSLDNAKNTVYLQMYSLKPEDTAVYYCNADGGSGAYLDLTITDYDYWGQGTQVTVSS,low polyreactivity
21,QVQLVESGGGLVQAGGSLRLSCAASASIYAHYEMGWYRQAPGKERELVAAITASGGTTYYADSVKGRFTISRDNAKNTVYLQMNSLKPEDTAVYYCNAGKRTFLYDRDDYWGQGTQVTVSS,high polyreactivity

# From the nanobody polyreactivity screen of Harvey et al. (2022)
